Laboratory results taken from PMC4613515.

Biological target: His6–WT cyclin Y (Sf21) (human) (UniProt Q8ND76)
Assay: co-purification on Ni-NTA–agarose, immunoblot; His6–cyclin Y (WT or S326A) expressed in Sf21 cells and affinity-purified; defined amounts immunoblotted for 14-3-3

Chain of UniProt Q8ND76 (Q8ND76 whole entry): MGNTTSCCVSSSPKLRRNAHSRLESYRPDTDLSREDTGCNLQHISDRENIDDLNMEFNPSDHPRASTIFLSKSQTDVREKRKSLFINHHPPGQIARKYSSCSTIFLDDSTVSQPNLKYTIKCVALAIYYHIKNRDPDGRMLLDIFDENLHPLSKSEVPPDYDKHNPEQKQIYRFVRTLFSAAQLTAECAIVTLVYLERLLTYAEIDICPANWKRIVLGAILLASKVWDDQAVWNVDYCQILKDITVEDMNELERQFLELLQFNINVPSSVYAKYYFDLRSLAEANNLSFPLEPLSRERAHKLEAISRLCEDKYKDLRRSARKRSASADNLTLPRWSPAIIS

14-3-3 proteins (endogenous in Sf21 cells) (natural protein)
amount of co-purified 14-3-3 against that with COS-1-derived WT cyclin Y: 100 fold less
